Source: patent US20240228562A1, “NOVEL LIPOCALIN MUTEINS SPECIFIC FOR CONNECTIVE TISSUE GROWTH FACTOR (CTGF)” (PIERIS PHARMACEUTICALS GMBH, priority 2021, published 2024)

Experiments:
[1] = Thermal stability assessment by nanoDSC; type: physicochemical; details: 1 mg/mL in PBS, scan 25-100° C. at 1° C./min
Outline: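 CTGF-specific lipocalin muteins at 1 mg/mL in PBS scanned from 25 to 100° C at 1° C/min by capillary nano-DSC. Where several transitions occur, the Tm of the major unfolding event is reported, along with onset temperature. Some muteins were expressed in E. coli, others in CHO cells.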

[2] = target: T1, human CTGF (Homo sapiens, UniProt P29279); assay: SPR binding kinetics and affinity, human CTGF; details: 25° C., 1:1 binding model
T1 construct: purchased Creative Biomart
T1 sequence (P29279 with tags, fused parts or gaps H83D): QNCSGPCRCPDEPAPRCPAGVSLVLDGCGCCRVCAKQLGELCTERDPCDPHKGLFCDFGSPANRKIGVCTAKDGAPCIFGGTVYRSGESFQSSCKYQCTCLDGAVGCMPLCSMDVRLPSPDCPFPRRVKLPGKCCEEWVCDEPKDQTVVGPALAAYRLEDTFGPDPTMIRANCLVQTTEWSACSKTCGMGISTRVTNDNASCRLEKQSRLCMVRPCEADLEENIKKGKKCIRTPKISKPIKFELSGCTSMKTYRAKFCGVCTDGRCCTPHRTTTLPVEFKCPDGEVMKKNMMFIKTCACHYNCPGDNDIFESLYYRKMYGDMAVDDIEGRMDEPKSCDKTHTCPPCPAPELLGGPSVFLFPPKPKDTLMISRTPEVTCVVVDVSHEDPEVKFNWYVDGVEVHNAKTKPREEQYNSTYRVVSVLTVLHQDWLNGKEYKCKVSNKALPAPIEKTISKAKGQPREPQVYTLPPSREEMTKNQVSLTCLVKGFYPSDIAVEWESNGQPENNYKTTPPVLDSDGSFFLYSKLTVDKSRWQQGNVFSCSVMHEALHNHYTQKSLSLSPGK
Outline: (§1)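 Biacore SPR at 25 °C; CTGF either Fc-captured via anti-human IgG (HBS-EP+) or amine-coupled to CM5 (300–1100 RU). Muteins injected 180 s contact, 900–3600 s dissociation, 30 μL/min.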

[3] = target: T2, human CTGF (Homo sapiens, UniProt P29279, H83D); assay: SPR binding kinetics and affinity, human CTGF; details: 25° C., 1:1 binding model
T2 construct: purchased Creative Biomart
T2 sequence (P29279 with tags, fused parts or gaps H83D): as above
Outline: as §1

[4] = test system: cynomolgus CTGF; assay: SPR binding kinetics and affinity, cynomolgus CTGF; details: 25° C., 1:1 binding model
Sequence of cynomolgus CTGF (as listed by the source): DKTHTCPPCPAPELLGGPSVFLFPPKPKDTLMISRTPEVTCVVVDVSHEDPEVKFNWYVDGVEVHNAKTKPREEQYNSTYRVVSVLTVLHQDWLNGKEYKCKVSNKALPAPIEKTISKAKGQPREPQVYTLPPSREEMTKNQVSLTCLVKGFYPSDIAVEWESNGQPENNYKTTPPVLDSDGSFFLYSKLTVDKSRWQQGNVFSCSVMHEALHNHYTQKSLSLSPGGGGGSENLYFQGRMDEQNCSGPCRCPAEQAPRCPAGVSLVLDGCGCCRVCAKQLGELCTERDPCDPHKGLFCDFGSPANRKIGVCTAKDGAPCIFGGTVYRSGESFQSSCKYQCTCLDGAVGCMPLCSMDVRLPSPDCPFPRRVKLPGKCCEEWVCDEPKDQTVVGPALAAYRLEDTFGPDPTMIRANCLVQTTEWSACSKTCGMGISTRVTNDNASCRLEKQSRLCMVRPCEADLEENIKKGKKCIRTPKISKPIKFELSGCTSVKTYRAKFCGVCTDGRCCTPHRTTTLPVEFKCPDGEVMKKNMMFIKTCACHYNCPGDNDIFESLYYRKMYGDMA
Method: (§2) Surface plasmon resonance (SPR) was used to measure binding kinetics and affinity of the representative lipocalin muteins disclosed herein.
(§3) The binding of exemplary lipocalin muteins to human (Creative Biomart), cynomolgus, rat (R&D Systems) and mouse CTGF (Abbexa) was determined by SPR using a Biacore instrument (Cytiva, formerly GE Healthcare). Some targets were fused to a human IgG1 Fc tag, and captured via the anti-human IgG antibody kit, others were directly immobilized.
(§4) For some measurements, human CTGF with a human IgG1 Fc Tag or rat or murine CTGF without a tag were directly immobilized to a CM5 Chip. The carboxyl groups on the chip were activated using 1-ethyl-3-(3-dimethylaminopropyl)-carbodiimide (EDC) and N-hydroxysuccinimide (NHS). Subsequently, the targets at a concentration of 3-5 μg/mL in 10 mM sodium acetate (pH) 4.5 were applied at a flow rate of 10 μL/min until an immobilization level of 300-1100 resonance units was achieved. Residual non-reacted NHS-esters were blocked by passing a solution of 1 M ethanolamine across the surface. The reference channel was activated/deactivated. For the capture setting, targets with an IgG Fc Tag at 0.25-2.5 μg/mL in HBS-EP+ buffer were captured by the anti-human IgG-Fc antibody at the chip surface for 180 s at a flow rate of 10 μL/min.
(§5) The binding assay was carried out with a contact time of 180 s, a dissociation time of 900-3600 s and a flow rate of 30 μL/min. All measurements were performed at 25° C. […] For the directly immobilized targets, the same regeneration conditions were used. Prior to the protein measurements, three startup cycles were performed for conditioning purposes. Data were evaluated with Biacore Evaluation software. Double referencing was used and the 1:1 binding model was used to fit the raw data.
(§6) The values determined for kon, koff and the resulting equilibrium dissociation constant (KD) for exemplary lipocalin muteins are summarized in Table 4.

[5] = target: T3, Murine CTGF (Mus musculus, UniProt P29268); assay: SPR binding kinetics and affinity, murine CTGF; details: 25° C., 1:1 binding model
T3 construct: purchased Abbexa
T3 sequence (P29268 26-348): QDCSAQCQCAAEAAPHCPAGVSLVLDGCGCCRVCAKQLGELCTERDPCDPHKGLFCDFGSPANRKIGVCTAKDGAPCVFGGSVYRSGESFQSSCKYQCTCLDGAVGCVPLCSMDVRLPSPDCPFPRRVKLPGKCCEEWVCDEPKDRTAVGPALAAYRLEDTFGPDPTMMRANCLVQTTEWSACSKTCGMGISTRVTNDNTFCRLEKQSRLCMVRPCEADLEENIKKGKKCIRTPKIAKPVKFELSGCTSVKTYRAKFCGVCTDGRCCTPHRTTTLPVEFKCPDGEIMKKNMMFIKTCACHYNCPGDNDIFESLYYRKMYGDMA
Outline: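 Targets either amine-coupled to CM5 chip (300–1100 RU; Fc-tagged human, untagged rat/murine) or Fc-captured via anti-human IgG; muteins injected 180 s contact, 900–3600 s dissociation, 30 μL/min, 25° C. Double-referenced sensorgrams fit to 1:1 model giving kon, koff and KD.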

[6] = target: T4, Rat CTGF (Rattus norvegicus, UniProt Q9R1E9); assay: SPR binding kinetics and affinity, rat CTGF; details: 25° C., 1:1 binding model
T4 construct: purchased R&D Systems
T4 sequence (Q9R1E9 25-347): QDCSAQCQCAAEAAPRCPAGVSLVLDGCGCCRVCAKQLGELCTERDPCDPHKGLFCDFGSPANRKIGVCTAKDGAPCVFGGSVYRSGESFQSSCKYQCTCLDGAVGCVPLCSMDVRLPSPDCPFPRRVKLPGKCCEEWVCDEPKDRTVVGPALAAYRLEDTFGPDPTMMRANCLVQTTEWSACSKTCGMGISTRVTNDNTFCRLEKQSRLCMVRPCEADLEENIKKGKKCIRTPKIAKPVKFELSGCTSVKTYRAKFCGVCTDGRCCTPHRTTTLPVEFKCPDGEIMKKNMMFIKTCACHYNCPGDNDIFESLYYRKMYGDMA
Method: as §2, §3, §4, §5, §6

[7] = test system: bleomycin-induced lung fibrosis; assay: Bleomycin mouse model of lung fibrosis; type: in vivo; details: day 14 after bleomycin
Method: The anti-fibrotic activity of lipocalin muteins upon local delivery to the lung was evaluated in vivo using a mouse model of bleomycin-induced lung fibrosis. Bleomycin is a DNA damaging agent, also used in cancer therapy, which induces a severe damage of the lung epithelium upon delivery to the lungs of rodents. The injury causes a strong inflammatory response in the lungs which in turn triggers fibrotic response. The peak of fibrotic remodeling, usually observed between day 14 and 21 after bleomycin challenge, is characterized by an excessive deposition of extracellular matrix and destruction of alveolar lung structures. Here, approximately 9 weeks old, male C57BL/6N mice were challenged with bleomycin at a dose of 1 mg/kg or saline as a control via the intranasal route. Animals were treated daily with lipocalin muteins at a dose of 5 mg/kg or PBS as a vehicle control via local delivery to the lungs from day 0 to day 13 after bleomycin challenge. […] Animals were sacrificed at day 14 after bleomycin challenge and level of lung fibrosis was analyzed in formalin fixed, paraffin embedded lung tissues by histopathological evaluation using the Ashcroft score (Matsuse modification) and quantitative digital analysis of IHC detected Collagen1a1 protein deposition.
For determination of the Ashcroft score lung tissue slides were stained according to the Crossman's Trichrome method (Gray, Peter (1954) The Microtomist's Formulary and Guide. Blakiston, New York, 1954). The whole pulmonary area subjected for histopathological analysis was evaluated at ten low magnification fields and total score for each animal was calculated as a mean (Ashcroft et al., Journal of clinical pathology 41.4 (1988): 467-470; Matsuse, T., et al. European Respiratory Journal 13.1 (1999): 71-77.). […]
Collagen1a1 (Col1a1) deposition was analyzed by immunohistochemistry as a second measure for fibrotic lung remodeling. […] Stained tissue slides were evaluated for Col1a1 deposition by digital image analysis using the morphometry protocol (CaloPix software, TRIBVN). […]

[8] = mutein 5 mg/kg daily to lung, antibody 10 mg/kg every other day intravenous

B1: SEQ ID NO: 24: optimized CTGF-binding hNGAL lipocalin mutein (protein)
chain: QDSTSDLIPAPPLSKVPLQQNFQDNQFQGKWYVVGVAGNAILRTDKQPAKMFATIYELKEDKSYDVTSVRFEAKSCKYTIKTFVPGSQPGEFTAGNIKSAPGQTSTLVRVVSTNYNQHAMVFFKHVSQNREIFVITLYGRTKELTSELKENFIRFSKSLGLPENHIVFPVPIDQCIDG
modifications: lipocalin mutein
- ONSET MELTING [1]: 58 °C
- TM ([1]; major transition): 72 °C
- human CTGF koff [2]: 1.41e-05 s⁻¹
- human CTGF kon [3]: 157000 M⁻¹ s⁻¹
- cynomolgus CTGF koff [4]: 2.63e-05 s⁻¹
- cynomolgus CTGF kon [4]: 195000 M⁻¹ s⁻¹
- Murine CTGF koff [5]: 1.16e-05 s⁻¹
- Murine CTGF kon [5]: 299000 M⁻¹ s⁻¹
- Rat CTGF koff [6]: 3.51e-05 s⁻¹
- Rat CTGF kon [6]: 138000 M⁻¹ s⁻¹
- Reduction of Ashcroft score vs mean of vehicle-treated animals ([7]; mutein 5 mg/kg daily local lung delivery day 0-13): 14.1%
- Effect on Ashcroft score [7, 8]: significantly decreased the Ashcroft score
- Reduction of Col1a1 positive lung surface area vs mean of vehicle controls [7, 8]: 25.2%
